# Experiments:
# Test in all cases: tandem affinity purification with Western blot
# [1] = target: TAP-tagged Spt7 (S. cerevisiae) (UniProt P35177)
# [2] = target: TAP-tagged Ada2 (S. cerevisiae) (UniProt Q02336)
# [3] = target: TAP-tagged Esa1 (S. cerevisiae) (UniProt Q08649)
# Sequence of UniProt Q08649 (Q08649 whole entry): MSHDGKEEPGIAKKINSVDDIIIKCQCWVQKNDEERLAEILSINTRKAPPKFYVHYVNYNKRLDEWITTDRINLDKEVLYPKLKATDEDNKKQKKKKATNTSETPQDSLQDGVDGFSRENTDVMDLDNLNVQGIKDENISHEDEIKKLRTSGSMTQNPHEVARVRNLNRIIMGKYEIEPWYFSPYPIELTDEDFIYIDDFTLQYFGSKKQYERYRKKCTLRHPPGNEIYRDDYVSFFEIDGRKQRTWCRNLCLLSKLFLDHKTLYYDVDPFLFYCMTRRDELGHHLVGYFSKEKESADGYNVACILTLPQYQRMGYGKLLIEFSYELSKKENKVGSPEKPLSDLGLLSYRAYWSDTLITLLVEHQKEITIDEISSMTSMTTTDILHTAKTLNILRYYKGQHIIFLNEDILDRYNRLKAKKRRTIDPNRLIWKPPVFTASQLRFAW
# Sequence of UniProt P35177 (P35177 whole entry): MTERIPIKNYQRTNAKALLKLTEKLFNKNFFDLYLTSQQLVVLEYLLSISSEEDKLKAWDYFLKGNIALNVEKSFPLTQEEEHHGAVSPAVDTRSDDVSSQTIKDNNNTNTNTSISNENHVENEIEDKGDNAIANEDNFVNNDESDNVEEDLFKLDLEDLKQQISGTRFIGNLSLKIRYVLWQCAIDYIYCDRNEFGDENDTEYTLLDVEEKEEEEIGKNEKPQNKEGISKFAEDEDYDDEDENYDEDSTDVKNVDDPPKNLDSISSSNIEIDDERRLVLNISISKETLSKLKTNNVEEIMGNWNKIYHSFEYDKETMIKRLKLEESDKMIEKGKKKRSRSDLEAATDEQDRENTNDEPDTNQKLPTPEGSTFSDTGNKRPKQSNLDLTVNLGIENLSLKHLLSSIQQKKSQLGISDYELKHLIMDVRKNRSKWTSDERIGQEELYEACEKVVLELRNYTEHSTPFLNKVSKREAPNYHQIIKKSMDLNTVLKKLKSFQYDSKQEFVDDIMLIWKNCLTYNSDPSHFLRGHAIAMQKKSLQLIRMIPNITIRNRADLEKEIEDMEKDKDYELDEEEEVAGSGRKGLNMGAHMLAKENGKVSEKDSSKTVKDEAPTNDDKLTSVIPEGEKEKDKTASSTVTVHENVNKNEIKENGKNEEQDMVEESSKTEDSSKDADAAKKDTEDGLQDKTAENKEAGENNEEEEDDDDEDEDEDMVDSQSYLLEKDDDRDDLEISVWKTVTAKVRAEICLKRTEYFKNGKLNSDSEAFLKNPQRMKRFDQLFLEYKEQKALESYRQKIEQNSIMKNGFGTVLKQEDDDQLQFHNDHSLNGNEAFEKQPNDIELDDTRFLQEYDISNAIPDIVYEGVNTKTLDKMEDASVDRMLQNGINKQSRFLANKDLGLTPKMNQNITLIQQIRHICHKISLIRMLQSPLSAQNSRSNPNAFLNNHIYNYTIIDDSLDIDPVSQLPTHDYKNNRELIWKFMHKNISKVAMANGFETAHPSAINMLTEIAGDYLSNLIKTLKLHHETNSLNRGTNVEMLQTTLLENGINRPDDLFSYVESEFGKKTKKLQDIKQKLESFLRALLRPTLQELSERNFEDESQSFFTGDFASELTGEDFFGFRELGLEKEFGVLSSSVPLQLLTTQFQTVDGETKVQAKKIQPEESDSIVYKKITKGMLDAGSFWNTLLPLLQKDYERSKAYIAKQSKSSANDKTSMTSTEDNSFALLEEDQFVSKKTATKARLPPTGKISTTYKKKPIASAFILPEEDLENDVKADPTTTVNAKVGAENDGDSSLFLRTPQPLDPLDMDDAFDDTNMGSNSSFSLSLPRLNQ
# Sequence of UniProt Q02336 (Q02336 whole entry): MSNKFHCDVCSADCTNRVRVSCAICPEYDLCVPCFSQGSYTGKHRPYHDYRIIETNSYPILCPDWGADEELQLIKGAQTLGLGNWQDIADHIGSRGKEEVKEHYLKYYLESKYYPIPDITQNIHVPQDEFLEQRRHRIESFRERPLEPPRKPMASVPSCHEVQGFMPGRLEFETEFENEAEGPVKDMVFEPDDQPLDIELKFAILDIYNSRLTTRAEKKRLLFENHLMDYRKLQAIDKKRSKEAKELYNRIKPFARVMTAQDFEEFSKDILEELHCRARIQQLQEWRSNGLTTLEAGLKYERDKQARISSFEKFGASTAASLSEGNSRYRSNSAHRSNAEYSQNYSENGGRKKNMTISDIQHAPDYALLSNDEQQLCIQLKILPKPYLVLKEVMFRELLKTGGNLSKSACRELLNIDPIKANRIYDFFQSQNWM
substance,measurement,setting,value
"myc9-Tra1-G3745, P38811 1-3744","amount co-purifying, percent of that found for wild-type Tra1",[1],< 5%
same,"interaction against wild-type Tra1, percent (reduced to or by is not clear)",[2],70%
same,"amount co-purifying, percent of that found for wild-type Tra1",[3],< 5%
